These results are taken from US20050153923A1, “Targeted drug delivery using EphA2 or EphA4 binding moieties” (priority 2003, published 2005).

For assay [1], the target named is T1, EphA2-Fc (Homo sapiens, UniProt P29317).
T1 construct: consisted of the extracellular domain of human EphA2 linked to human immunoglobulin
Nature of the assay: Competitive ELISA: inhibition of labeled EA2 binding to EphA2-Fc. The settings on record: unlabeled antibody, increasing concentrations; FIG. 1. The procedure:
The ability of labeled EA2 monoclonal antibody to bind EphA2-Fc was assayed by competitive ELISA in presence of either unlabeled monoclonal antibodies EA2 or Eph099B-208.261. Ratios of unlabeled to labeled antibody used in the assay are indicated on the x-axis.
Supernatants from bulk culture hybridomas were screened for immunoreactivity against EphA2 (Table 9, column 4) using standard molecular biological techniques (e.g., ELISA immunoassay). Supernatants were further screened for the ability to inhibit an EphA2 monoclonal antibody (EA2; ATCC deposit no. PTA-4380; see co-pending U.S. patent application Ser. No. 10/436,783, entitled “EphA2 Agonistic Monoclonal Antibodies and Methods of Use Thereof” filed May 12, 2003) from binding to EphA2. […] Additionally, many of the other antibodies could inhibit EA2 binding to EphA2 as well (Table 9, column 3).
On the technique in general: An ELISA detects its analyte on a solid surface through an enzyme-linked reagent.

Assay [2] relates to EphA2. Nature of the assay: EphA2 tyrosine phosphorylation in MDA-MB-231 cells (IP/Western blot). The assay is classed as cell-based. Conditions: MDA-MB-231 monolayers; single dose 5 μg/ml, 37° C. Here is the method:
Monolayers of MDA-MB-231 cells were incubated in the presence of a single dose of 5 μg/ml (A, C) Eph099B-208.261 or (B, D) EA2 for the indicated time at 37° C. Cell lysates were then immunoprecipitated with an EphA2-specific antibody, resolved by SDS-PAGE and subjected to Western blot analysis with a phosphotyrosine-specific antibody (A, B). The membranes were stripped and re-probed with the EphA2-specific antibody used in the immunoprecipitation as a loading control (C, D).
(§1) Monolayers of MDA-MB-231 cells were incubated in the presence of a single dose of 5 μg/ml Eph099B-233.152 at 37° C. Cell lysates were then immunoprecipitated with D7 (an EphA2-specific antibody), resolved by SDS-PAGE and subjected to Western blot analysis with (A) a phosphotyrosine-specific antibody or (B) an EphA2-specific antibody.
EphA2 antibodies promoted tyrosine phosphorylation and degradation of EphA2 in MDA-MB-231 cells. Monolayers of cells were incubated in the presence of EphA2 agonistic antibodies or control at 37° C. […]
(§2) Western blot analyses and immunoprecipitations were performed as described previously (Zantek et al., 1999, Cell Growth Diff. 10: 629-38, which is incorporated by reference in its entirety). […] Antibody binding was detected by enhanced chemiluminescence (Pierce, Rockford, Ill.) and autoradiography (Kodak X-OMAT; Rochester, N.Y.).

For assay [3], the system named is EphA2. Nature of the assay: EphA2 degradation / protein level in MDA-MB-231 cells (Western blot). Format: cell-based. The settings on record: MDA-MB-231 monolayers; single dose 5 μg/ml, 37° C. The procedure:
Monolayers of MDA-MB-231 cells were incubated in the presence of a single dose of 5 μg/ml (A, C) Eph099B-208.261 or (B, D) EA2 for the indicated time at 37° C. Cell lysates were then resolved by SDS-PAGE and subjected to Western blot analysis with an EphA2-specific antibody (A, B).
as §1
Monolayers of MDA-MB-231 cells were incubated in the presence of EphA2 agonistic antibodies at 37° C. Cell lysates were then resolved by SDS-PAGE and subjected to Western blot analysis with an EphA2-specific antibody (D7). […] Decreased EphA2 expression is due, in part, to deceased mRNA expression levels in response to EphA2 protein degradation caused by agonistic antibody binding (data not shown).
as §2
(In western blotting, separated proteins are transferred to a membrane and probed.)

The target of assay [4] is T1, EphA2-Fc. Nature of the assay: BIACORE surface plasmon resonance Koff measurement on immobilized EphA2-Fc. Format: binding. The settings on record: FIG. 15. The source says:
FIG. 15: Kinetic analysis of EphA2 monoclonal antibodies. BIACORE™ (surface plasmon resonance-based) assays were used to assay the kinetics of EphA2 monoclonal antibody binding to immobilized EphA2-Fc.
The surface plasmon resonance-based BIACORE™ assay was used to measure the Koff rates of the monoclonal antibodies of the invention. IgG present in the hybridoma supernatant was used for measurement. Antibodies with Koff rates of approximately less than 3×10^−3 s^−1 have slow Koff rates. Antibodies with Koff rates of approximately 8×10^−4 s^−1 or less have very slow Koff rates. Antibodies with Koff rates of approximately 9×10^−5 s^−1 or less have ultra slow Koff rates.
EphA2-Fc was immobilize to a surface on a CM5 sensorchip using a standard amine (70 μl of a 1:1 mix of NHS/EDC) coupling chemistry. Briefly, a 400 nM solution of EphA2-Fc in 10 mM NaOAc, pH4, was then injected over the activated surface to a density of 1000-1100 RU's. Unused reactive esters were subsequently “capped” with a 70 μl injection of 1M Et-NH2. Similarly, an activated and “capped” control surface was prepared on the same sensor chip without protein to serve as a reference surface.
A 250 μl injection of each of the EphA2 hybridoma supernatants was made over both the EphA2-Fc and control surfaces, and the binding responses were recorded. These supernatants were used undiluted. […]

A further assay deals with MDA-MB-231 tumor cells. The assay can be described thus: Inhibition of colony formation in soft agar. The assay is classed as cell-based. The settings on record: single dose 5 μg/ml purified antibody, FIG. 5. The procedure: A single dose of 5 μg/ml of Eph099B-208.261 (black bar), EA2 (white bar) purified EphA2 antibodies or a negative control antibody, 1A7 (gray bar) were incubated with malignant MDA-MB-231 tumor cells for the indicated time at 37° C. in soft agar. Results are reported as colonies per high-powered field (HPF).
Briefly, cells were suspended in soft agar for 7 days at 37° C. in the presence of purified antibody or control solution (PBS). Antibodies were administered at the time of suspension in both bottom and top agar solutions. Colony formation was scored microscopically using an Olympus CK-3 inverted phase-contrast microscope outfitted with a 40× objective. Clusters containing at least three cells were scored as a positive.

A further assay relates to cancer cells. The assay can be described thus: Elimination of cancer cell colonies already formed in soft agar (antibody added on third day). The assay is classed as cell-based. Conditions: data not shown. The source says:
Assay methods were similar to those described above except that antibodies were not added to the cancer cells until the third day of growth in soft agar.

The test system of the next assay is A549 lung cancer cells. Nature of the assay: Tumor growth, A549 cells implanted subcutaneously into athymic mice. Format: in vivo. Conditions: 6 mg/kg i.p. twice a week for 3 weeks; FIG. 7C. The procedure: Total tumor volume was determined after sacrifice.
Assay [5] concerns the target T2, EphA2-Fc (human, UniProt P29317 24-537).
T2 construct: extracellular domain; also called fusion protein EphA2-Fc; not shown: human IgG1 constant region
Nature of the assay: competitive ELISA on EphA2-Fc, competitor labeled EA2.

Assay [6] deals with MDA-MB-231 breast cancer cells. The assay can be described thus: Tumor growth and survival, MDA-MB-231 cells implanted subcutaneously into athymic mice. The settings on record: 6 mg/kg i.p. twice a week for 3 weeks vs PBS or 1A7; FIG. 7B, D.
Experimental: MDA-MB-231 cells were implanted subcutaneously into athymic mice. […] Tumor growth was assessed and expressed as a ratio of the tumor volume divided by initial tumor volume (100 mm^3).
(D) MDA-MB-231 breast cancer cells were implanted subcutaneously into athymic mice. […] Total tumor volume was determined after sacrifice.
Briefly, 5×10^6 MDA-MB-231 breast cancer cells were implanted subcutaneously into athymic mice. […] Tumor growth was assessed and expressed as a ratio of the tumor volume divided by initial tumor volume (100 mm^3).
5×10^6 MDA-MB-231 breast cancer cells were implanted orthotopically or subcutaneously and 5×10^6 A549 lung cancer cells were implanted subcutaneously into athymic mice. […] Tumor growth was assessed and expressed either as a ratio of the tumor volume divided by initial tumor volume (100 mm^3) or as total tumor volume.

“Also recorded” adds a separate entry of the source.

Sequence of EphA2 (P29317 24-976): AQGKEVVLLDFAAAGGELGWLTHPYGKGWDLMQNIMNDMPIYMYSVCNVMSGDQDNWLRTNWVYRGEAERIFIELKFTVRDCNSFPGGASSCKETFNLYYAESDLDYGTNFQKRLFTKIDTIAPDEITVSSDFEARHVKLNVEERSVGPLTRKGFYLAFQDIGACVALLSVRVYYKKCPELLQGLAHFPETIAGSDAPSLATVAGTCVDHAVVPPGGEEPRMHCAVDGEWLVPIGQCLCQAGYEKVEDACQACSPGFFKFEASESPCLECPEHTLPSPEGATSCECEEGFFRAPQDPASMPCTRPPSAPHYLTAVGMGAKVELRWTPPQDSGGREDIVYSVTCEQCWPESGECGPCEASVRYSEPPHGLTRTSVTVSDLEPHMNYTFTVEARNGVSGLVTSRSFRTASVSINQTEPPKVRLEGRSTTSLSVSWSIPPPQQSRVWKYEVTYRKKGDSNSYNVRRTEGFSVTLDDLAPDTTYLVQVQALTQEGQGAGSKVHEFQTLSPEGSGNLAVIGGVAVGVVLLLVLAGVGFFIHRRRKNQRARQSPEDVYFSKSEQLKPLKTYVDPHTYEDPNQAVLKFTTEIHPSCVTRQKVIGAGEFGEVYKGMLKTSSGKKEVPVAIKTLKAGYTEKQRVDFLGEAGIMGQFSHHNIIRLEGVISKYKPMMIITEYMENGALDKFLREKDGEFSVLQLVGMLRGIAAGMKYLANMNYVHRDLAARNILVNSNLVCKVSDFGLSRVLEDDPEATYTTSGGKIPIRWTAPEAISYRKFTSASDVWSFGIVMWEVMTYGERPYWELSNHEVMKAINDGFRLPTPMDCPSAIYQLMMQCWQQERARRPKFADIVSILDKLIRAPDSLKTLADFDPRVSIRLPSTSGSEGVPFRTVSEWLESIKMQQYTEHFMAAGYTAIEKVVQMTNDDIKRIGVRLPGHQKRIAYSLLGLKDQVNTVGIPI
T1 sequence (P29317 24-537 limits assumed): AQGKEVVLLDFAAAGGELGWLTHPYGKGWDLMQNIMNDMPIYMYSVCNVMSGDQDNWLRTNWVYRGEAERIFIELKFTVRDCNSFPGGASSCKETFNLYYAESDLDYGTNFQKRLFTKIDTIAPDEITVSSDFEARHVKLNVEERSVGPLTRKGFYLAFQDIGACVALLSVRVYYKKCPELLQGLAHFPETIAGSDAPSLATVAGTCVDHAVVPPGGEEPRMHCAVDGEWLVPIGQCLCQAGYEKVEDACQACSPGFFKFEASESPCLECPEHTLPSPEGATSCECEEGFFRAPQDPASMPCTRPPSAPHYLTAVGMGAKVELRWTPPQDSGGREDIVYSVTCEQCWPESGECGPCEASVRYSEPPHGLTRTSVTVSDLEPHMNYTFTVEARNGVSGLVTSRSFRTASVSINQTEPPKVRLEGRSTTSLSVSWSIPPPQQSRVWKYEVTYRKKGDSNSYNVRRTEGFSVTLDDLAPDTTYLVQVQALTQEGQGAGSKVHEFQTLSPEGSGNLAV
T2 sequence (P29317 24-537): as the sequence (P29317 24-537 limits assumed) above

B1: Eph099B-208.261 (antibody, V domains shown)
VH: QVQLQQPGAELVKPGASVKLSCKASGYTFTSYWMHWVKQRPGQGLEWIGMIHPNSGSTNYNEKFKSKATLTVDKSSSTAYMRLSSLTSEDSAVYYCARGGNMVGGGYWGQGTTLTVSS
VL: QIVLTQSPALMSASPGEKVTMTCSASSSVSYMYWYQQKPRSSPKPWIYLTTNLASGVPARFSGSGSGTSYSLTISSMEAEDAATYYCQQWSSNPFTFGSGTKLEIR
notes: Mouse (SJL) hybridoma monoclonal antibody, ATCC PTA-4573
As for B1, in the assay with EphA2-Fc [1], the “Competition with labeled EA2 for binding to EphA2-Fc” value is “could decrease the amount of labeled EA2 binding to EphA2-Fc; also recorded: can compete with EA2 for binding to EphA2”. Also, the EphA2 tyrosine phosphorylation result in the assay with EphA2 [2] is recorded as “increased EphA2 phosphorylation; also recorded: promote EphA2 tyrosine phosphorylation in MDA-MB-231 cells”. Besides, the “EphA2 protein level (degradation)” value in the assay on EphA2 [3] is “decreased EphA2 protein level; also recorded: promote EphA2 degradation in MDA-MB-231 cells”. Besides, the “Koff rate compared with EA2” value with EphA2-Fc [4] is reported as “slower Koff rates than EA2”. Further, in the assay on MDA-MB-231 tumor cells, the “Colony growth / formation in soft agar” value is “inhibited colony growth in soft agar; also recorded: inhibit malignant tumor cell growth in soft agar”. Besides, in the assay on cancer cells, the “Effect on cancer cell colonies already formed in soft agar” value is on record as “can kill cancer cells already growing in colonies in soft agar while other antibodies can slow or reduce cancer cell colony growth in soft agar”. Further, the “Tumor growth, A549 implanted subcutaneously” value with A549 lung cancer cells is reported as “inhibited”. The binding result with EphA2-Fc [5] is reported as “binds”. Moreover, the “Tumor growth, MDA-MB-231 implanted subcutaneously” value in assay [6] is “inhibited; also recorded: inhibit tumor cell growth in vivo”.
